This experiment concerns the target wild-type AC fused to GFP (AC-GFP), encoded by plasmid pAC0-Gfp (Bordetella pertussis | not stated) (UniProt P0DKX7). In words: two-hybrid.

Consider one substance from publication PMC13334617.

In the case of “calmodulin (CaM) with a 6-histidine tag at its N-terminus and a tetra-cysteine tag at its C-terminus, encoded by plasmid pTCam (from UniProt P0DP23 1-149) (natural protein)”, the cAMP was > 250 nmol/mg and the ß gal (Rel. Units) was 106 Rel. Units.
